According to PMC8453022, “A New Subfamily of Glycoside Hydrolase Family 30 with Strict Xylobiohydrolase Function” (Frontiers in Molecular Biosciences, 2021):

T1: AcXbh30A-CD (Acetivibrio clariflavus, UniProt G8LU16)
T1 construct: gene Clocl_1795; GH30 catalytic domain only, secretion leader and C-terminal type I dockerin removed, C-terminal His-tag, pET28 expression, ca. 50 kDa, apparent monomer
T1 sequence (G8LU16 29-455 limits assumed): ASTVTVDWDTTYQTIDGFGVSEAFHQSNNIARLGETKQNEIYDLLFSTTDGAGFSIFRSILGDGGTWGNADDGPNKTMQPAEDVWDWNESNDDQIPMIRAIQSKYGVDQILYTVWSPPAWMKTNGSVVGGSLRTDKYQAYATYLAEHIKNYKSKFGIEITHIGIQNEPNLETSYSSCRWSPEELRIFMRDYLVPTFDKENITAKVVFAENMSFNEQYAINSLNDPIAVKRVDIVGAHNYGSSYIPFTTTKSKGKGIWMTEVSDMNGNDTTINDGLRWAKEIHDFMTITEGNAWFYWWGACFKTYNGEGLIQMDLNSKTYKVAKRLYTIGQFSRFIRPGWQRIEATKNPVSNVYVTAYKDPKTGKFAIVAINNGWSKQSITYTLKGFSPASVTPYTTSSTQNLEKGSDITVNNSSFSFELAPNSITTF

B1: AcXbh30A-CD (Acetivibrio clariflavus DSM 19732) (protein)
chain: T1 sequence (G8LU16 29-455 limits assumed)
notes: GH30 catalytic domain only, secretion leader and C-terminal type I dockerin removed, C-terminal His-tag, pET28 expression, ca. 50 kDa, apparent monomer

Columns and labels:
[1] = molecular target: T1, AcXbh30A-CD; experiment: pNP-X2 hydrolysis, non-linear competitive inhibition fit; type: biochemical; details: competitive product inhibition; substrate pNP-X2; 30 mM sodium acetate pH 4.0, 0.02 mg/ml BSA, 65 C; read-out: AcXbh30A pNP-X2 kinetic values^a ^, ^b / 116.4 ± 3.23 μM
Excerpt: pNP-X2 hydrolysis, non-linear competitive inhibition fit on AcXbh30A-CD

[2] = substrate: O=[N+]([O-])c1ccc(O[C@@H]2OC[C@@H](O[C@@H]3OC[C@@H](O)[C@H](O)[C@H]3O)[C@H](O)[C@H]2O)cc1; experiment: purified protein; type: biochemical, Acetivibrio clariflavus; details: 30 mM sodium acetate pH 4.0, 0.02 mg/ml BSA, 65 C, 10 min

Molecule | Ki [1] | Km [2] | Vmax [2] | kcat [2] | kcat/Km [2]
OC1OC[C@@H](O[C@@H]2OC[C@@H](O)[C@H](O)[C@H]2O)[C@H](O)[C@H]1O (some centres unmarked) [X2] | 2.4 mM |  |  |  | 
B1 |  | 116.4 ± 3.23 µM | 183.1 ± 1.13 U mg^−1 | 152.7 s⁻¹ | 1,311.6 s^−1 mM^−1
